Experimental data as given in paper PMC2851570, “Distinct Roles of Hand2 in Initiating Polarity and Posterior Shh Expression during the Onset of Mouse Limb Bud Development” (PLoS Genetics, 2010).
One block for each molecule: values may come before it.

Key:
[1] = target: Hoxd13 (expressed in transfected cells) (UniProt P70217)
[2] = target: Hoxd13 (expressed in transfected cells) (UniProt P70217 1-339); assay: cell-based or functional assay
Hoxd13 (expressed in transfected cells) (UniProt P70217 1-339), sequence (P70217 whole entry): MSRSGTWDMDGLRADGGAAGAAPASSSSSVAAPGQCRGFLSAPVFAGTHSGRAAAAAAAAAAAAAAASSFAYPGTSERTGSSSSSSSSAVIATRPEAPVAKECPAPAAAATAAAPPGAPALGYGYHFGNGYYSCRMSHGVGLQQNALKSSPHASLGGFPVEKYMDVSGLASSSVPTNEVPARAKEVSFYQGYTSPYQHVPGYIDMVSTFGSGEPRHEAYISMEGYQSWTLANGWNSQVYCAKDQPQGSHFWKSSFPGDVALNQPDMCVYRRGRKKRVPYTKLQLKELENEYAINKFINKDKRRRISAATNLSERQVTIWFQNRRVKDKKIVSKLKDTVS

Hoxd13 (expressed in transfected cells) (UniProt P70217), sequence (P70217 whole entry): as above

repression by co-expressed Gli3R of Hand2-Hoxd13 mediated transactivation of the ZRS-Luc reporter in NIH3T3 cells [1]: 50%
Molecule: Gli3 repressor isoform (Gli3R), Myc-epitope tagged (domain or fragment)

luciferase activity of the ZRS-Luc reporter in NIH3T3 cells on co-transfection of Hand2 and Hoxd13 (basal activity set to 1; Hand2 alone ∼3-fold, Hoxd13 alone ∼6.5-fold) [2]: ~10.5 fold
B1: Hand2, Flag-epitope tagged (natural protein, UniProt Q61039 1-217, looked up)
chain: MSLVGGFPHHPVVHHEGYPFAAAAAAAAAAAASRCSHEENPYFHGWLIGHPEMSPPDYSMALSYSPEYASGAAGLDHSHYGGVPPGAGPPGLGGPRPVKRRGTANRKERRRTQSINSAFAELRECIPNVPADTKLSKIKTLRLATSYIAYLMDLLAKDDQNGEAEAFKAEIKKTDVKEEKRKKELNEILKSTVSSNDKKTKGRTGWPQHVWALELKQ
